# Data taken from patent US6699662, “Inhibitors of staphylococcus SarA protein function involved in the expression of staphylococcal virulence factors and the use thereof in treating staphylococcal infections” (University of Arkansas).
# T1: SarA (staphylococcal accessory regulator A), strain DB (Staphylococcus aureus, UniProt Q2G2U9 SEQ:1-124)
# T1 sequence: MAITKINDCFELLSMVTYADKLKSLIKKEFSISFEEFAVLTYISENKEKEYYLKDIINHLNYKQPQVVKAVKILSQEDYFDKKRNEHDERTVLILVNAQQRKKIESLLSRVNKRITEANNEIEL
# Biological target: T1, SarA (staphylococcal accessory …)
# Assay: footprint
# Details: tags: none (untagged full-length, expressed from pET9a in E. coli BL21(DE3)pLys); chain copies: 2 (dimer, stated); label: 32P
binder,measurement,value
agr P2-P3 inter-promoter region (cloned in pBKH50; DNase I footprint fragment about 240 bp with vector ends) (dsDNA) DNA 1: CATTAAAACATGCTAAAAGCATTTATTTTCCAATTTTTCTTAACTAGTCGTTTTTTATTCTTAACTGTAAATTTTTTTATGTTAAAATATTAAATACAAATTACATTTAACAGTTAAGTATTTATTTCCTACAGTTAGGCAATATAATGATAAAAGATTGTACTAAATCGTATAATGACAGGATCCCCGG DNA 2: CCGGGGATCCTGTCATTATACGATTTAGTACAATCTTTTATCATTATATTGCCTAACTGTAGGAAATAAATACTTAACTGTTAAATGTAATTTGTATTTAATATTTTAACATAAAAAAATTTACAGTTAAGAATAAAAAACGACTAGTTAAGAAAAATTGGAAAATAAATGCTTTTAGCATGTTTTAAGT,apparent K (half saturation),4.24 pM
